The record followed here is PMC13530268.

Residue numbers refer to the chain shown, from its start. Names and notes keep the numbering of the source. Where two headings read alike, the source gives them in different places.

For data set [1], the target named is PITX3 homeodomain protein (66 amino acid region) (human). Description: native gel or EMSA. (In general: Mobility shift assays separate free from complexed probe on a gel.)
The target of data set [2] is PHOX2B Q46R homeodomain protein (human). Description: native gel or EMSA.
Data set [3] concerns the target PHOX2B Q46K homeodomain protein (human). Description: native gel or EMSA.
Data set [4] deals with ALX4 homeodomain protein (amino acids 209-274) (human) (UniProt Q9H161). Description: native gel or EMSA.
Data set [5] concerns the target OTP homeodomain protein (amino acids 99-164) (human) (UniProt Q5XKR4). Description: native gel or EMSA.
Data set [6] addresses T1, CRX HD E4N;K50Q (Homo sapiens, UniProt O43186 34-99, E42N;K88Q). Nature of the data set: EMSA.
Data set [7] concerns the target T2, CRX HD K50Q (Homo sapiens, UniProt O43186 34-99, K88Q). Description: EMSA.
Data set [8] has as its target T3, CRX HD R2Q (Homo sapiens, UniProt O43186 34-99, R40Q). Nature of the data set: EMSA.
In a further data set the target is CRX HD E4K (Homo sapiens, UniProt O43186 34-99, E42K). Description: EMSA.
A further data set has as its target CRX HD R3Q (Homo sapiens, UniProt O43186 34-99, R41Q). Nature of the data set: EMSA.
Data set [9] addresses T4, CRX HD (Homo sapiens, UniProt O43186 34-99). Description: EMSA.
For data set [10], the target named is T1, CRX HD E4N;K50Q. Description: EMSA. The source holds these as a separate data set.
For data set [11], the target named is T4, CRX HD. Description: EMSA. The source holds these as a separate data set.
Data set [12] deals with T2, CRX HD K50Q. Nature of the data set: EMSA. This is another data set of the same source.
For data set [13], the target named is T3, CRX HD R2Q. Description: EMSA. This is another data set of the same source.
The target of a further data set is CRX HD E4N (Homo sapiens, UniProt O43186 34-99, E42N). Description: EMSA.
For a further data set, the target named is ARX HD P26L (Mus musculus, UniProt O35085 326-390, P355L). Description: EMSA.
The target of the next data set is PHOX2B HD R44G (Homo sapiens, UniProt Q99453 94-158, R141G). Description: EMSA.
PHOX2B HD R44G, sequence (Q99453 94-158 R141G): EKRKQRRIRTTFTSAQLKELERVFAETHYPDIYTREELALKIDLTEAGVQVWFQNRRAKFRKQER

T1 sequence (O43186 34-99 E42N/K88Q): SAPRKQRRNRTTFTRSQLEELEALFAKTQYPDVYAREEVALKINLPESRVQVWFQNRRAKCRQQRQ
T2 sequence (O43186 34-99 K88Q): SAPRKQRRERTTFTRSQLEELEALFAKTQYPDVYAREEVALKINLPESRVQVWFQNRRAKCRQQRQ
T3 sequence (O43186 34-99 R40Q): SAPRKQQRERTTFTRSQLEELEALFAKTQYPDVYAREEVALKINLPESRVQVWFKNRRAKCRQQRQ
T4 sequence (O43186 34-99): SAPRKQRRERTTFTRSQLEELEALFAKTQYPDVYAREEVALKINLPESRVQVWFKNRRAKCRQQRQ
CRX HD E4K, sequence (O43186 34-99 E42K): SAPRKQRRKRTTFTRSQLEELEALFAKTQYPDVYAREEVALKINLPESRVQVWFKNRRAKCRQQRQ
ARX HD P26L, sequence (O35085 326-390 P355L): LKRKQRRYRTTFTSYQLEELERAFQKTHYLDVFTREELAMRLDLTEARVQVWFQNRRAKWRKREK
CRX HD E4N, sequence (O43186 34-99 E42N): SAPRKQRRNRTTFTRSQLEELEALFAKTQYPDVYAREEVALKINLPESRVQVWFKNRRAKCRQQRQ
CRX HD R3Q, sequence (O43186 34-99 R41Q): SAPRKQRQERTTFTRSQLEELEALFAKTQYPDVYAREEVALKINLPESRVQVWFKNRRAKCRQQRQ

With “PITX3 homeodomain protein (66 amino acid region) (domain or fragment)”, the Tau with P3K DNA in data set [1] is 0.157.

Consider “PHOX2B Q46R homeodomain protein (domain or fragment)”, for which, in data set [2], the Tau with P3Q DNA was found to be 1.27.

In data set [3], “PHOX2B Q46K homeodomain protein (domain or fragment)” showed a Tau with P3Q DNA of 0.9.

“ALX4 homeodomain protein (amino acids 209-274) (from UniProt Q9H161 209-274) (domain or fragment)” returned a Tau with P4Q DNA in [4] of 0.792.

On to “OTP homeodomain protein (amino acids 99-164) (from UniProt Q5XKR4 99-164) (domain or fragment)”, for which, in data set [5], the Tau with P4Q DNA was 0.29.

B1: Q50 monomer (TAATTA) (dsDNA)
DNA 1: CGGGCTAATTAGGCCTAGTGCGGGCGTGGCT
DNA 2: AGCCACGCCCGCACTAGGCCTAATTAGCCCG
As to B1, the binding result in the data set with CRX HD E4N;K50Q [6] and with CRX HD K50Q [7] was “binds” throughout.

B2: K50 monomer (TAATCC) (dsDNA)
DNA 1: B1 DNA 1 with T10C, A11C
DNA 2: B1 DNA 2 with T21G, A22G
Consider B2, for which the binding result with CRX HD R2Q [8], with CRX HD E4K and with CRX HD R3Q was “binds” in each case.

B3: P4K (dsDNA)
DNA 1: TGTGTCTTAATCCGGATTAACGCACTTGATAGTGCGGGCGTGGCT
DNA 2: AGCCACGCCCGCACTATCAAGTGCGTTAATCCGGATTAAGACACA
B3: in the data set with CRX HD [9], the binding result is listed as “binds”.

B4: P3K (dsDNA)
DNA 1: TGTGTCTTAATCCGATTAACGCACTTGATAGTGCGGGCGTGGCT
DNA 2: AGCCACGCCCGCACTATCAAGTGCGTTAATCGGATTAAGACACA
In the case of B4, the values for the binding signal with CRX HD E4N;K50Q [10], in the data set with CRX HD [11] and with CRX HD K50Q [12] were 395 ± 90.1 Tau, 8.94 ± 1.78 Tau and 340 ± 161 Tau, respectively. Moreover, the binding result in the data set with CRX HD R2Q [13] and with CRX HD E4N was “binds” in each case.

B5: P3Q (dsDNA)
DNA 1: B4 DNA 1 with C12T, C13A
DNA 2: B4 DNA 2 with G32T, G33A
Turning to B5, the figures for the binding signal in the data set with CRX HD E4N;K50Q [10], with CRX HD K50Q [12] and in the data set with ARX HD P26L were 112 ± 12.1 Tau, 54.6 ± 2.72 Tau and ~10 fold decrease in Tau vs WT, respectively. Besides, in the data set with PHOX2B HD R44G, the binding result is “no binding”.
